Experimental data as given in patent US8067187.

What was measured:
[1] = target: T1, heat-denatured misfolded chicken ovalbumin, P01012
T1 chain: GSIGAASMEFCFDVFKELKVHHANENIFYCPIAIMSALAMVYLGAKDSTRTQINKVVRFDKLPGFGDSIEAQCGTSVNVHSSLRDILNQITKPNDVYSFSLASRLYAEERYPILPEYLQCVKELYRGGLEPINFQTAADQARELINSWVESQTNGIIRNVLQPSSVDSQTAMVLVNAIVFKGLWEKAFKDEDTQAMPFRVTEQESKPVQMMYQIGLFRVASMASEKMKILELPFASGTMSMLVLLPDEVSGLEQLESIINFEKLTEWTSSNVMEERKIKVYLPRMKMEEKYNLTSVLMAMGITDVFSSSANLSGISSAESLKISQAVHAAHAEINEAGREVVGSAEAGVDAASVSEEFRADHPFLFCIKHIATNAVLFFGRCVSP

[2] = target: T2, recombinant human β2-glycoprotein I, P02749
T2 chain: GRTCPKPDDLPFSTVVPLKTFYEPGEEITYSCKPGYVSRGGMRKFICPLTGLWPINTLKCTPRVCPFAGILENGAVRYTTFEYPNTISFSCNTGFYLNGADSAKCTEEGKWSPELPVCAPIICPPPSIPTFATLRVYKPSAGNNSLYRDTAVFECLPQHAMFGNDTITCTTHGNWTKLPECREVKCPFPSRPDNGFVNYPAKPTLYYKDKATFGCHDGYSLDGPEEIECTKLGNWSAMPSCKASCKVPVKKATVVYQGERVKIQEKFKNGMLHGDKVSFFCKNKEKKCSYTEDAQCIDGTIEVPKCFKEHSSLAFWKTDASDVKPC

[3] = target: T3, β2-glycoprotein I purified from fresh human plasma, P02749
T3 chain: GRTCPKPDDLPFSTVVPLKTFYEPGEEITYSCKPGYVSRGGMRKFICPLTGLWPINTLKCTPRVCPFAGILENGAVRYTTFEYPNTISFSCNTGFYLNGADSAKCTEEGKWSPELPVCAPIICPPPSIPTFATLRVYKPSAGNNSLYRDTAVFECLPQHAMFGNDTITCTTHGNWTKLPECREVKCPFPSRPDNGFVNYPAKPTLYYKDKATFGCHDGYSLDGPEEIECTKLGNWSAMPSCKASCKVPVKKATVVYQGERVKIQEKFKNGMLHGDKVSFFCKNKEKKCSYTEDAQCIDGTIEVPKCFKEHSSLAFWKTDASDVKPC

B1: tissue-type plasminogen activator (tPA, Actilyse, Boehringer-Ingelheim) (protein)
chain: SYQVICRDEKTQMIYQQHQSWLRPVLRSNRVEYCWCNSGRAQCHSVPVKSCSEPRCFNGGTCQQALYFSDFVCQCPEGFAGKCCEIDTRATCYEDQGISYRGTWSTAESGAECTNWNSSALAQKPYSGRRPDAIRLGLGNHNYCRNPDRDSKPWCYVFKAGKYSSEFCSTPACSEGNSDCYFGNGSAYRGTHSLTESGASCLPWNSMILIGKVYTAQNPSAQALGLGKHNYCRNPDGDAKPWCHVLKNRRLTWEYCDVPSCSTCGLRQYSQPQFRIKGGLFADIASHPWQAAIFAKHRRSPGERFLCGGILISSCWILSAAHCFQERFPPHHLTVILGRTYRVVPGEEEQKFEVEKYIVHKEFDDDTYDNDIALLQLKSDSSRCAQESSVVRTVCLPPADLQLPDWTECELSGYGKHEALSPFYSERLKEAHVRLYPSSRCTSQHLLNRTVTDNMLCAGDTRSGGPQANLHDACQGDSGGPLVCLNDGRMTLVGIISWGLGCGQKDVPGVYTKVTNYLDWIRDNMRP
tPA protease activity, chromogenic tPA substrate S-2765 [1]: At 80-fold dilution, misfolded OVA stimulated tPA protease activity when compared to PBS/DMSO buffer control | Plg-activation assay: tPA-mediated conversion of Plg to plasmin, chromogenic substrate S-2251 [2]: Recombinant β2GPI, but not β2GPI purified from fresh plasma stimulate tPA-mediated conversion of Plg to plasmin | Plg-activation assay: tPA-mediated conversion of Plg to plasmin, chromogenic substrate S-2251 [3]: Recombinant β2GPI, but not β2GPI purified from fresh plasma stimulate tPA-mediated conversion of Plg to plasmin
